{"source": "patent US20070172470A1", "about": "“Phosphatase regulation of nucleic acid transcription” (The Regents of the University of California, priority 2003, published 2007)", "molecules": {"B1": {"name": "SCP1: small CTD phosphatase-1, full-length 261 aa human protein, SEQ ID NO:2 (protein, listed as Homo sapiens)", "chain": "MDSSAVITQISKEEARGPLRGKGDQKSAASQKPRSRGILHSLFCCVCRDDGEALPAHSGAPLLVEENGAIPKTPVQYLLPEAKAQDSDKICVVIDLDETLVHSSFKPVNNADFIIPVEIDGVVHQVYVLKRPHVDEFLQRMGELFECVLFTASLAKYADPVADLLDKWGAFRARLFRESCVFHRGNYVKDLSRLGRDLRRVLILDNSPASYVFHPDNAVPVASWFDNMSDTELHDLLPFFEQLSRVDDVYSVLRQPRPGS"}}, "key": {"[1]": {"type": "biochemical", "settings": "PNθP as substrate"}, "RNAP IIO": {"target": "T1, RNAP IIO (Bos taurus, UniProt G3MZY8)", "T1 construct": "Calf thymus RNAP IIA was purified; from tissue; host or cells: calf thymus", "experiment": "CTD phosphatase assay with RNAP IIO as substrate", "type": "biochemical, calf", "method": "FIGS. 2C and 2D show a CTD phosphatase assay of FCP1 and SCP1 on GST-CTDo and RNAP IIO prepared by MAPK2/ERK2. Increasing amounts of FCP1 or GST-SCP1 214 were assayed in the presence of 75 fmol GST-CTDo (lanes 1-6), 75 fmol RNAP IIO (lanes 7-12), or 75 fmol GST-CTDo and 75. fmol RNAP IIO (lanes 13-18). Both GST-CTDo and RNAP IIO substrates were prepared by the in vitro phosphorylation of CKII-labeled GST-CTDa or RNAP IIA by MAPK2/ERK2. All reactions were carried out in the presence of 7 pmol RAP74. CTD dephosphorylation of both GST-CTDo and RNAP IIO is shown by the increase in mobility of GST-CTDo to GST-CTDa and subunit IIo to IIa, respectively. The difference in the intensity of radiolabeled GST-CTDoand that of radiolabeled subunit IIo is not a reflection of a difference in the amount of substrates present, but of the higher efficiency with which CKII incorporates radiolabeled phosphates onto the most C-terminal serine of GST-CTDa compared to subunit. IIa.\nIncreasing amounts of GST-SCP1 214 were assayed in the presence of 3.7 fmol RNAP IIO prepared by CTDK1/CTDK2, TFIIH, P-TEFb, MAPK2/ERK2 and Cdc2 kinase. All reactions were carried out in-the presence of 7 pmol. RAP74. CTD dephosphorylation of RNAP IIO isozymes. by qSTSCP1 214 is shown by an increase in mobility of subunit IIo to that of IIa. The results are summarized in the graph showing the percent of RNAP IIO remaining as a function of increasing SCP1 concentrations.\nPreparation and Purification of ^32P-RNAP IIO Isozymess and ^32P-GST-CTDo: Calf thymus RNAP IIA was purified by the method of Hodo and Blatti (30) with modifications as described by Kang and Dahmus (31). Specific isozymes of ^32p-labeled RNAP IIO were prepared by phosphorylation at the most C-terminal serine (CKII site) in the largest subunit of purified RNAP IIA with recombinant CKII and […], followed by CTD phosphorylation in the presence of 2 mM ATP with either purified CTDK1/CTDK2, TFIIH, P-TEFb, recombinant MAPK2/ERK2 or recombinant Cdc2 kinase. The RNAP IIO isozymes were individually purified over a DE53 column with a step elution of 500 mM KCl (28). Because only the most C-terminal serine is labeled with ^32p and lies outside. the consensus repeat, dephosphorylation by CTD phosphatase results in an electrophoretic mobility shift in SDS-PAGE of subunit IIo to the position of subunit IIa without the loss of label. Similarly, ^32P-labeled GST-CTDo was prepared from GST-CTDa by CKII followed by MAPK2/ERK2. GST-CTDo was purified over a glutathione-agarose column with a step elution of 15 mM glutathione.\nCTD phosphatase assays utilizing RNAP IIO and GST-CTDo as substrate were performed as described previously (32) with minor modifications. Reactions were performed in 20 μl of CTD phosphatase buffer (50 mM Tris-HCl, pH 7.9, 10 mM MgCl2, 20% glycerol, 0.025% Tween 80, 0.1 mM EDTA, 5 mM DTT) in the presence of 20 mM KCl. Each reaction contained specified amounts of GST-CTDo and/or RNAP IIO and was carried out in the presence of 7 pmol RAP74. Reactions were initiated by the addition of FCP1 or SCP1 and incubated at 30° C. for 30 minutes. Assays were terminated by the addition of 5× Laemmli buffer, and RNAP II subunits and GST-CTD were resolved on a 5% SDS-PAGE gel. The gel images were developed by autoradiography and scanned by Molecular Dynamics Image Scanner Storm 860 in the phosphor screen mode. Data were quantitatively analyzed by ImageQuant software."}, "[2]": {"system": "glucocorticoid receptor activity on GRE-TK-Luc construct", "experiment": "Luciferase reporter assay, dexamethasone-stimulated glucocorticoid receptor", "type": "cell-based, human", "settings": "100 nM dexamethasone", "source_text": "(§1) Gal4-DNA binding domain-SCP1 fusion protein expression plasmids-were cotransfected in HEK293 cells with a Gal 4-TKLuc reporter plasmid and luciferase gene expression quantitated. In all panels, results of triplicate transfections are shown +/− SD. Data is expressed as fold-activation experimental/control). […] The indicated amounts of SCP1 or mutant SCP1 expression plasmids were cotransfected in HEK293 cells along with Gal 4-VP16 expression and Gal 4-TK-Luc reporter plasmids and luciferase activity was quantitated. […] The indicated receptor expression plasmids were cotransfected with their cognate promoter-reporter plasmids with or without SCP1 or mutant SCP1 expression plasmids. Cells were treated or untreated with receptor-specific ligands as described infra. […] The indicated concentrations of SCP1 and mutant SCP1 expression plasmids were cotransfected with LMX1 and E47 expression plasmids and the rat insulin 1 promoter-luciferase reporter gene. Luciferase activity was measured as described.\n(§2) Tissue Culture and Transfections: Human 293, COS7 and CV1 cells were grown at 37° C. in DMEM supplemented with 10% normal calf serum (BRL). Sub-confluent cells were transfected in 6 well tissue culture dishes using Effectene (Qiagen) according to the manufacturer's instructions. Reporter and activator plasmids (100 ng each) and Flag SCP1 (80 ng) or its mutant were used per well. […]"}, "[3]": {"system": "rat insulin 1 promoter-luciferase reporter gene", "experiment": "Rat insulin promoter-luciferase assay with LMX1 and E47", "type": "cell-based", "settings": "LMX1 and E47 co-expressed", "source_text": "as §1, §2"}, "[4]": {"settings": "3.7 fmol RNAP IIO, 7 pmol RAP74"}}}
{"molecule": "B1", "values": [{"measurement": "pH optimum for SCP1 phosphatase activity", "setting": "[1]; GST-fusion", "result": "~5"}, {"measurement": "divalent metal ion requirement of phosphatase activity", "setting": "[1]; Ca2+ could not substitute", "result": "Mg^2+-dependent"}, {"measurement": "dephosphorylation of RNAP IIO generated by Abl tyrosine kinase", "setting": "RNAP IIO", "result": "unable to dephosphorylate"}, {"measurement": "dephosphorylation of RNAP IIO generated by TFIIH", "setting": "RNAP IIO; [4]", "result": "most efficiently dephosphorylates"}, {"measurement": "dephosphorylation of RNAP IIO prepared with Cdc2 kinase", "setting": "RNAP IIO; [4]", "result": "unable to dephosphorylate"}, {"measurement": "dephosphorylation of RNAP IIO isozymes prepared with P-TEFb, MAPK2/ERK2 and CTDK1/CTDK2", "setting": "RNAP IIO; relative to RNAP IIO prepared with TFIIH", "result": "reduced rate"}, {"measurement": "dexamethasone-stimulated glucocorticoid receptor activity", "setting": "[2]", "result": "inhibited"}, {"measurement": "inhibition of luciferase expression", "setting": "[3]; 40 ng SCP1 plasmid alone", "result": "> 90", "unit": "%"}, {"measurement": "inhibition of luciferase expression", "setting": "[3]; 40 ng SCP1 plasmid plus 20 ng mutant SCP1 plasmid", "result": "~20", "unit": "%"}]}
